Test results from IntAct's records for PubMed 20489725.

Key:
obsl1_human OBSL1 [1] = target: obsl1_human OBSL1 (UniProt O75147)
obscn_human OBSCN [2] = target: obscn_human OBSCN (UniProt Q5VST9)
obsl1_human OBSL1 [3] = target: obsl1_human OBSL1 (UniProt O75147); remark: listed apart in the source
obscn_human OBSCN [4] = target: obscn_human OBSCN (UniProt Q5VST9); remark: listed apart in the source
obscn_human OBSCN [5] = target: obscn_human OBSCN (UniProt Q5VST9); remark: listed apart in the source
obsl1_human OBSL1 [6] = target: obsl1_human OBSL1 (UniProt O75147); remark: listed apart in the source
obscn_human OBSCN [7] = target: obscn_human OBSCN (UniProt Q5VST9); remark: listed apart in the source
obsl1_human OBSL1 [8] = target: obsl1_human OBSL1 (UniProt O75147); remark: listed apart in the source

Chain of obsl1_human OBSL1 (O75147 whole entry): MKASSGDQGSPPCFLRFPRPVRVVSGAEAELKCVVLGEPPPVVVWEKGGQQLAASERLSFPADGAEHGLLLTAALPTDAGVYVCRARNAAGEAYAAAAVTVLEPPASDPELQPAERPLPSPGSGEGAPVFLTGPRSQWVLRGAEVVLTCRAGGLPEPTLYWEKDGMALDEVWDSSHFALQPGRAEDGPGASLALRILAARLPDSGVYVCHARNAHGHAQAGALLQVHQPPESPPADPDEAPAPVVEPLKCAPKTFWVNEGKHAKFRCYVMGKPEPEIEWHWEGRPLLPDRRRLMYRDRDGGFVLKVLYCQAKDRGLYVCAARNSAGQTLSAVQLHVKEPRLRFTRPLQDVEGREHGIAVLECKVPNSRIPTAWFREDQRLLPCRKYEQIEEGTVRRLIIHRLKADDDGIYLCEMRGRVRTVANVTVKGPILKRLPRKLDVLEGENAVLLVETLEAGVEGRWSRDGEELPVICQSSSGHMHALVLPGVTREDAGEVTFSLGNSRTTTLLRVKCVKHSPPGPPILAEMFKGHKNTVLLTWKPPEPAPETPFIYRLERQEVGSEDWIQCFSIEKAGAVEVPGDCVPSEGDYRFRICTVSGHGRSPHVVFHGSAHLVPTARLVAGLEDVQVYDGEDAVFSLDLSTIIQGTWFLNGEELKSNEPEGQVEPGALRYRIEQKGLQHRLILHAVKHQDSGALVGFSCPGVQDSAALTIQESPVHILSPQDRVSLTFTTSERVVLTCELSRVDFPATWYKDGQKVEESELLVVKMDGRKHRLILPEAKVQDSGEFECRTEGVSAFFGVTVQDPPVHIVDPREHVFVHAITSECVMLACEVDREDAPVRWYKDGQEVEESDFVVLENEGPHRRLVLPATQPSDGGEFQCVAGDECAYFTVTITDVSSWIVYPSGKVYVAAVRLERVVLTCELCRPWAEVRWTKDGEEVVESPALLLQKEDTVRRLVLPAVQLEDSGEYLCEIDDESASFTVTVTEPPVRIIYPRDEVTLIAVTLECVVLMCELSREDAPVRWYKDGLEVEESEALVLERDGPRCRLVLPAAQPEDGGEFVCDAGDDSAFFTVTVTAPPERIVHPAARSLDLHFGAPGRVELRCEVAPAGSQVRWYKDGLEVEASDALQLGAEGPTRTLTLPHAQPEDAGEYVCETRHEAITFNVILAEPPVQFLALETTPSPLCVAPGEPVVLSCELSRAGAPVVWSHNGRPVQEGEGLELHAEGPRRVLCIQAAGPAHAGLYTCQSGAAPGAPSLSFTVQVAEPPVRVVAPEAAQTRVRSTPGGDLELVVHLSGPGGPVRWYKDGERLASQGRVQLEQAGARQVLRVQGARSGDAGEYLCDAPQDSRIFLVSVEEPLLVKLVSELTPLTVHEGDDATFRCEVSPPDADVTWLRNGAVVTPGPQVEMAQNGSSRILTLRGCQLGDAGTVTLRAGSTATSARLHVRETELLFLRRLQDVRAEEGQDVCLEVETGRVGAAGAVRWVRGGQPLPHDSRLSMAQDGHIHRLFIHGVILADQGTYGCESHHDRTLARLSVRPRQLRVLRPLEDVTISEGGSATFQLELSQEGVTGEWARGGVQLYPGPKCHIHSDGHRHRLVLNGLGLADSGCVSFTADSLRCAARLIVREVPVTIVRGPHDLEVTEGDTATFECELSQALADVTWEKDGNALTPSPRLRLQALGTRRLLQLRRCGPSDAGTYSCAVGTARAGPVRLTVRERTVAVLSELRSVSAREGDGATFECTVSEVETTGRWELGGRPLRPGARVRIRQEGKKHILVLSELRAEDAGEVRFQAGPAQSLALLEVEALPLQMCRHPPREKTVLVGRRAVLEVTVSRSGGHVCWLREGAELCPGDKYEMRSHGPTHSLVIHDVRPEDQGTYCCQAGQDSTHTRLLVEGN

Titin (Homo sapiens), Q8WZ42 I34306N was tested, and the “effect of a mutation on the interaction” value (obsl1_human OBSL1 [1]) was “decreasing interaction” and the “effect of a mutation on the interaction” value (obscn_human OBSCN [2]) was “decreasing interaction”.
For Titin (Homo sapiens), Q8WZ42 H34305P, the “effect of a mutation on the interaction” value (obsl1_human OBSL1 [3]) was “decreasing interaction” and the “effect of a mutation on the interaction” value (obscn_human OBSCN [4]) was “decreasing interaction”.
Titin (Homo sapiens), Q8WZ42 D34311R was tested, and the “effect of a mutation on the interaction” value (obscn_human OBSCN [5]) was “decreasing interaction”.
For Titin (Homo sapiens), Q8WZ42 D34311S, the “effect of a mutation on the interaction” value (obsl1_human OBSL1 [6]) was “decreasing interaction”.
With Titin (Homo sapiens), Q8WZ42 R34348E the “effect of a mutation on the interaction” value (obscn_human OBSCN [7]) was “decreasing interaction” and the “effect of a mutation on the interaction” value (obsl1_human OBSL1 [8]) was “increasing interaction”.
